Data from paper doi:10.1101/2025.03.04.641466.

What was measured:
EGFP-vinculin = EGFP-vinculin (UniProt P18206); test: FRET or BRET
mTFP1-vinculin = mTFP1-vinculin (UniProt P18206); test: FRET or BRET

FRET efficiency (EGFP-vinculin) | FRET efficiency (mTFP1-vinculin) [%] | Substance
13.5 |  | RIAM-mScarlet (RIAM C-terminally tagged with mScarlet-I) (from UniProt Q7Z5R6 1-666) (natural protein)
16.4 | 20 | mScarlet-RIAM (RIAM N-terminally tagged with mScarlet-I) (from UniProt Q7Z5R6 1-666) (natural protein)
